Experimental findings from US20140017240A1 (University of California, published 2014) are described below.

In experiment [1] the target is T1, N-cadherin extracellular domains one to three recombinant protein with GST tag (human) (UniProt P19022).
T1 sequence (looked up): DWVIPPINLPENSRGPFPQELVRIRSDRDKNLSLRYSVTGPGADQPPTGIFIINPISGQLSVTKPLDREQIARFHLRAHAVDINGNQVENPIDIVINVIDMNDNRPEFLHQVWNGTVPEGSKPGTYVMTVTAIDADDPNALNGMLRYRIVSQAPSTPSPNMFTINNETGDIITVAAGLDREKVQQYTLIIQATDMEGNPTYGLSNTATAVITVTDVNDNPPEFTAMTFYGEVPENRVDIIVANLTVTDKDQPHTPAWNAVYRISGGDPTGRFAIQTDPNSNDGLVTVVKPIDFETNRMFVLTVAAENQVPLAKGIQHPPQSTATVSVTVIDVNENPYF
In words: phage ELISA, plate coated with ECD1-3-GST.

The target of experiment [2] is T2, N-cadherin extracellular domains one to three recombinant protein with 6 histidine tag (human) (UniProt P19022).
T2 sequence (looked up): T1 sequence (looked up)
Briefly: phage ELISA, plate coated with ECD1-3-6HIS. (In an ELISA, binding on a coated surface is turned into a signal by an enzyme label.)

For experiment [3], the target named is T1, N-cadherin extracellular domains one to three recombinant protein with GST tag (human). Briefly: phage ELISA, second phage batch, plate coated with ECD1-3-GST.
The target in experiment [4] is T2, N-cadherin extracellular domains one to three recombinant protein with 6 histidine tag (human). Briefly: phage ELISA, second phage batch, plate coated with ECD1-3-6HIS.
For experiment [5], the target named is N-cadherin on the cell surface (PC3 cells and LNCaP N-cadherin transfected cells) (human) (UniProt P19022). Briefly: flow cytometry, phage clone on N-cadherin positive cells (cell line not stated). On the technique in general: Flow cytometry measures light scatter and fluorescence of single cells or particles in a stream.
Experiment [6] has as its target T3, N-cadherin on the cell surface (PC3 cells and LNCaP N-cadherin transfected cells) (human, UniProt P19022 160-906).
T3 construct: whole, on cells; DU145 and untransfected LNCaP cells served as N-cadherin negative cells; also called cellular N-cadherin; cell surface N-cadherin
T3 sequence (looked up): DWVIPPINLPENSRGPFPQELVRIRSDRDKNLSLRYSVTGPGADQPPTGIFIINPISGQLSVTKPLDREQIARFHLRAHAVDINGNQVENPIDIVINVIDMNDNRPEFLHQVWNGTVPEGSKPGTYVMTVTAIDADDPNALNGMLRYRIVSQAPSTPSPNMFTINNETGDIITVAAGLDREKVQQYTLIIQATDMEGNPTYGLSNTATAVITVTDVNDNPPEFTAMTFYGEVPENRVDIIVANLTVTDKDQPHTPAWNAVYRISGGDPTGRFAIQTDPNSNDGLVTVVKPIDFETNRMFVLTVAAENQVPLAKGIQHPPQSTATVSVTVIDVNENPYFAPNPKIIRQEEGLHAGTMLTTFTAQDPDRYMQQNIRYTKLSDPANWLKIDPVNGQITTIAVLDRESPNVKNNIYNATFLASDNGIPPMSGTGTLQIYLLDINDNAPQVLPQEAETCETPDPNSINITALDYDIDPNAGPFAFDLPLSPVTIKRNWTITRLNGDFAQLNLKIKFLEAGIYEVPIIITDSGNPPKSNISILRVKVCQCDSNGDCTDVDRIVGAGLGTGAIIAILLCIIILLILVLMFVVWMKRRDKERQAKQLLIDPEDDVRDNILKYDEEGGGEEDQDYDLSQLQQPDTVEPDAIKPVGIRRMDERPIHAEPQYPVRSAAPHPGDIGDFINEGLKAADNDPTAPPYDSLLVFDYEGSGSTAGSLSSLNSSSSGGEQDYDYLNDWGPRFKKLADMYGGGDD
Briefly: flow cytometry, diabody at 2 ug/ml on PC3 cells.

Experiment [7] has as its target T4, N-cadherin extracellular domains one to three recombinant protein with 6 histidine tag (human, UniProt P19022 160-497).
T4 construct: range 160-497; Expressed in bacteria and purified from the periplasmic fraction on Ni-NTA; also called ECD1-3-6HIS; ECD1-3 6HIS; not shown: 6 histidine tag
T4 sequence (looked up): T1 sequence (looked up)
In words: phage ELISA.

The target in experiment [8] is T3, N-cadherin on the cell surface (PC3 …). In words: flow cytometry, diabody on N-cadherin positive cells. How it is done: Flow cytometry was conducted to assess binding of phage antibody clones and diabodies to cellular N-cadherin. For phage antibody staining supernatant concentrated 20 times was used. Individual clones were grown in 20 ml 2TY to a density of 0.5 O.D_{600 nm} when phage were rescued with helper phages. After an overnight culture, monoclonal phage were harvested from the supernatant by precipitation with PEG/NaCl and resuspended in 1 ml PBS/1% BSA. For flow cytometry staining, 5×10⁵ cells were incubated for one hour on ice with 100 μl of 20×PEG concentrated phage antibody clone. Cells were washed in flow buffer (PBS 1% FBS, 1 mM EDTA, 0.02% Sodium azide) and the phage antibody clones detected with monoclonal anti-M13 antibody (Amersham Biosciences). Cells were washed and stained with R-PE congugated anti-mouse antibody. For diabody staining, 5×10⁵ cells were incubated for one hour on ice with the diabody at a 2 μg/ml concentration in flow buffer. Cells were washed and the diabody detected with 1/100 anti-c-Myc-biotin antibody in flow buffer. Cells were finally washed and stained with 1/40 Streptavidin-R-PE (SIGMA) in flow buffer.
The eleven individual phage clones selected by ELISA were tested for cell binding of N-cadherin positive cells (PC3 and LNCaP N-cadherin transfected cells) by flow cytometry. […]

B1: A8 phage antibody clone (truncated) (scFv)
scFv: MAQVQLQESGWYFDLWGRGTPVTVSSGGGGSGGGGSGGGGSEIVLTQSPSSLSASVGDRVTITCRASQGIRNDLGWYQQKPGKAPKLLIYAASSLQSGVPSRFSGSGSGTDFTLTISSLQPEDFATYYCLQDYNGWTFGQGTKVEIKR
With B1, the 1st ELISA (O.D) came out at 0.17 O.D in experiment [1] and 0.25 O.D in experiment [2]. Further, the 2nd ELISA (O.D) in experiment [3] is 0.05 O.D; in experiment [4], 0.11 O.D. Besides, in experiment [5], the Flow Cytometry (MFI) is 30 MFI.

B2: D4 diabody (other)
chain: MAQVQLVQSGAEVKRPGASVRISCKASGYPFTTYPIHWVRQAPGQGLEWMGGINPNSGATKNVQKFQGRVTMTADTSIRTAYMELSRLTSDDTAVYYCARGEGDTGSYLGGYWGLGTLVTVSSGGGGSSELTQDPAVSVALGQTVRITCQGDSLRSYYASWYQQKPGRAPLLVIYGKNIRPSGIPDRFSGSSSGNSASLTITGAQAEDEADYYCNSRDRSGNYLFGVGTKVTVLG
notes: Diabody made from the scFv by shortening the linker; also called D4 Db; not shown: c-Myc and 6HIS tags from the pSyn1 vector
Take B2: in experiment [6], the binding result is listed as “binds”.

B3: A14 ScFv phage antibody clone (scFv)
scFv: MAQVQLVQSGGGLAQPGGSLRLSCAASGFTFSRHAMIWVRQAPGKGLEWVSSISGSSDSTSYADSVKGRFTISRDNSKNTLYLQMNTLRAEDTAVYYCAKATGYSYYYGMDVWGPGTTVTVSSGGGGSGGGGSGGGGSDIQMTQSPSSLSASLGDRVTITCRASQGISNYLAWYQQKPGKAPKLLIYGATTLQHGVPSRFSGSGSGTDFSLTISSLQPEDFAIYFCQQAHSFPPTFGGGTKLEIKR
notes: Clone A1 was renamed A14; Selected on ECD4-6HIS; also called A14 (A1)
As for B3, the binding result in experiment [7] was “no binding”.

B4: D4 phage antibody clone (scFv)
scFv: MAQVQLVQSGAEVKRPGASVRISCKASGYPFTTYPIHWVRQAPGQGLEWMGGINPNSGATKNVQKFQGRVTMTADTSIRTAYMELSRLTSDDTAVYYCARGEGDTGSYLGGYWGLGTLVTVSSGGGGSGGGGSGGGGSSELTQDPAVSVALGQTVRITCQGDSLRSYYASWYQQKPGRAPLLVIYGKNIRPSGIPDRFSGSSSGNSASLTITGAQAEDEADYYCNSRDRSGNYLFGVGTKVTVLG
In turn, B4 returned a Flow Cytometry (MFI) in experiment [5] of 0 MFI.

B5: E4 diabody (other)
chain: MAQVQLVQSGAEVKKPGESLEISCKGSGYSFANNWIGWVRQMPGKGLEWMGSIYPGDSDVRYSRSFQGHVTISADKSISTAYLQWSSLKASDTAMYYCARHRVAYSGYDAFDIWGQGTMVTVSSGGGGSSVLTQDPAVSVALGQTVRITCQGDSLRSYYPSWYQQKPGQAPVLVIYGKNNRPSGIPDRFSGSSSGNTASLTITGAQAEDEADYYCHSRDRSGNQVLFGGGTKVTVLG
notes: Diabody made from the scFv by shortening the linker; also called E4 Db; not shown: c-Myc and 6HIS tags from the pSyn1 vector
Take B5: the binding result in experiment [8] was “binds”.

B6: A14 diabody (other)
chain: MAQVQLVQSGGGLAQPGGSLRLSCAASGFTFSRHAMIWVRQAPGKGLEWVSSISGSSDSTSYADSVKGRFTISRDNSKNTLYLQMNTLRAEDTAVYYCAKATGYSYYYGMDVWGPGTTVTVSSGGGGSDIQMTQSPSSLSASLGDRVTITCRASQGISNYLAWYQQKPGKAPKLLIYGATTLQHGVPSRFSGSGSGTDFSLTISSLQPEDFAIYFCQQAHSFPPTFGGGTKLEIKR
notes: Diabody (small bivalent antibody fragment) made from the scFv by shortening the linker from 15 to 5 a.a; also called A14 Db; not shown: c-Myc and 6HIS tags from the pSyn1 vector
As for B6, the binding result in experiment [8] is recorded as “binds”.
